Reference: the nanobody polyreactivity screen of Harvey et al. (2022)

Assay: yeast display, Sf9 membrane polyspecificity reagent, FACS + sequencing; frameworks hold sequencing errors
Method in brief: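 A nanobody's polyreactivity label depends on the gate it was sorted from. Yeast display cells were stained with 10% biotinylated, detergent-solubilized Sf9 membrane reagent for 1 hour at 4 °C, enriched on streptavidin microbeads and sorted by FACS. The low and high (top ~1%) gates were set on anti-HA fluorescence for expression and streptavidin fluorescence for reagent binding.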

QVQLVESGGGLVQAGGSLRLSCPASGFTFYVNAMGWSRQAPGKERELVAGITTSDGSTYYADSVKGRFTISRDNAKNNVYLQMNSLKPEDTAVYYCAAAITWYQLYQRSGGDYWGQGTQVTVSS
polyreactivity (PSR sort gate): low polyreactivity

QVQLVESGGGLVQAGGSLRLSCAASGSTFGRYAMGWYRQAPGKERELVAAISWSGGSTHYADSVKGRFTISRDNAKNTVYLQMNSLKPEDTAVYYCAAYTFYSYDYWGQGSQVTVSS
polyreactivity (PSR sort gate): high polyreactivity

QVQLVESGGGLVQAGGSLRLSCAASGFTFWDNAMGWYRQAPGKERELVAAISRRGGTTYYADSVKVRFTISRDNAKNTVYLQMNSLKPEDTAVYYCNKAFSLQIYATGMGYWGQGTQVTVSS
polyreactivity (PSR sort gate): high polyreactivity

QVQLVESGGGLVQAGGSLRLSCAASGSIFGYYAMGWYRQAPGKERELVAVITRSGGSTYYADSVKGRFTISRDNAKNTVYLQMNSLKPEDTAVYYSNAKSDYGYKMYYWGQGTQVTVSS
polyreactivity (PSR sort gate): high polyreactivity

QVQLVESGGGLVQAGGSLRLSCAASGNTFHTNAMGWYRQAPGKERELVAAITGGGSTYYADSVKGRFTISRDNAKNTVYLQMNSLKPEDTAVYYCNTDVPYGLDVSDTIDYYYWGQGTQVTVSS
polyreactivity (PSR sort gate): low polyreactivity

QVQLVESGGGLVQAGGSLRLSCGASGSTSDIYAMGWYRQAPGKESEFGAAISLTGGTTYYADSVKGRFTISCENAKNTVYLQMNSLKQEDTAVYYCNADVGWWGYDDDYWGQGTQVTVSS
polyreactivity (PSR sort gate): high polyreactivity

QVQLVESGGGLVQAGGSLRLSCAASGSTFGYYAMGWYRPAPGKERELVAAINVSGGRTYYADSVKGRFTISRDNAKNTVYLQMNSLKPEDTAVYYCAAQRPEYRAGRYNYWGQGTQVTVSS
polyreactivity (PSR sort gate): high polyreactivity

QVQLVESGGGLVQAGGSLRLSCAASGRTFWRYAMGWYRQAPGKERELVAGITSRGGSTYYADSVKGRFTISRDNAKNTVYLQMNSLKPEDTAVYYCNRRSQVHSHSKHDYWGQGTQVTVSS
polyreactivity (PSR sort gate): low polyreactivity

QVQLVESGGGLVQAGGSLRLSCAASGFTFSRNTMGWYSQAPGKERELVARISASGGSTYYADSVKGRITISRDNAKNTVYLQMNSLKPEATAVYYCAAVYRRYGGSRYDYWGQGTQVTVSS
polyreactivity (PSR sort gate): high polyreactivity

QVQLVESGGGLVQAGGSLRLTWAATGSIFRTNAMGSYRPAPGKERELVAAITGSGGSTYYADSVKGRFTISRYNAKNTVYLQMNCLKPEETAVYYCAAEFGSFVSPYNYYYWGQGTQVTVSS
polyreactivity (PSR sort gate): low polyreactivity

QVQRVESGGGLVQAGGSLRLTCAASGSIFRSYAMGWYRQAPGKERELVAAISSSSGSTYYADSVKGRFTISRDKAKYTVYLQMNSLKPEDTAVYYCAARYRIGNNGYEYWGQGTQVTVSS
polyreactivity (PSR sort gate): low polyreactivity

QVQLVESGRGIVQAGGSLRLSCAASGLTFSSNAMVWYRQAPGKEREMVAVITNGGSTNYADSVKGRFTISRDNAKNTVYLQMNSLKPEDTAVYYCAKDGGPAQDIGMDYWGQGTQVTVSS
polyreactivity (PSR sort gate): low polyreactivity

QVQHVESGGGLVQAGCSLRLSCAASGLIFGLYAMGWFRPAPGKERELVAAISYRTDSTYADSVKGRFTISRDNAKNTVYLQMNSLKPEDNAVYYCAADLRVSVRYYYWGHGTQVTVSS
polyreactivity (PSR sort gate): low polyreactivity

QVQLVESGGGLVQAGGSLRLSCAASGSIFNSNAMGWYRQAPGKERELVAAITGSGGRTYYADSVKGRFTISRDNAKNTVYLQMNSLKPEDTAVYYCNAVTYSRRYAYYYWGQGTQVTVSS
polyreactivity (PSR sort gate): high polyreactivity

QVQLVESGGGLVQAGGSLRLSCAASGSTFPFYAMGWYRQAPGKERELVAAIRYTGNTYYADSVKGRFTISRDNAKNTVFLLMISLKPEDTAVYYCAADADYWAYGYWGHGTQVTVSS
polyreactivity (PSR sort gate): low polyreactivity

QVQLVVSGGGLVQAGGSLRLSCAASGIIFVQYTMGWYRQAPGQERELDAAITRGGNTYYADSVKGRFTISRDNAKNTVYLQMNSLKPEATAVYYCNKAYWYANLRYRTGVKLQFYYWGQGTQVNVSS
polyreactivity (PSR sort gate): high polyreactivity

QVQLVESGGGLVQAGGSLRLSCAASGSIFGSNAMGWYRQAPGKERELVAAITNTGRTNYADSVKGRFTISRDYAKNTVYLQMNSLKPEDTAVYYCNADWRRSHAYGYWGQGTQVTVSS
polyreactivity (PSR sort gate): low polyreactivity
